# From the supplement of paper PMC7125110
# ± gives the standard error. Fewer inactive variants are shown than the library holds.
# B1: glmS ribozyme (parent)
# chain: AUAAAAGCGCCAGAACUACAGAAAUGUAGUUGACGAGGAGGAGGUUUAUCGAAUUUUCGGCGGAUGCCUCCAAA
# Columns and labels:
# Details in all cases: with glucosamine-6-phosphate
# [1] = variants of: B1; test: self-cleavage kobs at 160 uM GlcN6P; higher = faster cleavage; RNA array
# Summary of the method: (§1)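 Ribozyme variants carrying barcodes were transcribed in situ on sequenced MiSeq chips by E. coli RNA polymerase and tracked at 37 °C with a hybridised Cy3 probe. They were exposed to 40 μM to 10 mM glucosamine-6-phosphate in HEPES/KCl/Mg(OAc)2 buffer. kobs came from exponential decay fits of normalised per-tile medians, and kcat and KM from weighted Michaelis–Menten fits.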
# [2] = variants of: B1; test: self-cleavage kobs at 640 uM GlcN6P; higher = faster cleavage; RNA array
# Summary of the method: as §1
# [3] = variants of: B1; test: self-cleavage kobs at 2500 uM GlcN6P; higher = faster cleavage; RNA array
# Summary of the method: as §1
# [4] = variants of: B1; test: self-cleavage kobs at 10000 uM GlcN6P; higher = faster cleavage; RNA array
# Summary of the method: as §1
Variant,self-cleavage kobs at 160 uM GlcN6P [1],self-cleavage kobs at 640 uM GlcN6P [2],self-cleavage kobs at 2500 uM GlcN6P [3],self-cleavage kobs at 10000 uM GlcN6P [4]
AUAAAAGCGCCAGAAUUACAGAAAUGUAGUAGACGAGGAGGAUGUUUAUCGUAUUUUCGGCGGAUGCCUCCAAA [C16U U31A G43U A52U],< 1e-05 s⁻¹,< 1e-05 s⁻¹,< 1e-05 s⁻¹,
AUAAAAGCUCCACAACUACAGAAAUGUAGUUGACGAGGAGGUGGUUUAUCGAAUUUUCGGCGGAUGCCUCCAAA [G9U G13C A42U],< 1e-05 s⁻¹,< 1e-05 s⁻¹,< 1e-05 s⁻¹,
AUAAAUGCGACAGAACUACAGAAAUGUAGUUGACGAGGGCGAGGUUUAUCGAAUUUUCGGGGGAUGGCUCCAAA [A6U C10A A39G G40C C61G C67G],< 1e-05 s⁻¹,< 1e-05 s⁻¹,< 1e-05 s⁻¹,
AUAAAAGCGCCAGAACUACAGAAAUGUAGUUGACGAGCAGGAGGUUUAUCGAAUAUUCGGCGGAUGCCUCCAAA [G38C U55A],< 1e-05 s⁻¹,< 1e-05 s⁻¹,,
AUAAAUGCGCCAGAACUACAGAAAUGUAAUUGACGAGGAGGAGGUUUAUCGAAGUUUCGGCGGAUGCCUCCAAA [A6U G29A U54G],< 1e-05 s⁻¹,,,
AUAAAAGCGCCAGAACUACAGAAAUGUAGUUGACGAGGAGGCGGUUUAUCGAAUUUUCGGCGGAUGCCACCAAA [A42C U69A],5.29e-05 ± 2.2e-05 s⁻¹,0.000125 ± 3.8e-05 s⁻¹,0.000182 ± 4.1e-05 s⁻¹,0.0008 ± 0.00018 s⁻¹
AUAAAAGCACUAGAAUUACAGAAAUGUAGUUGACGAGGAGGAGGUUUAUCGAAUUUUCGGCGAAGGCGUCCAAA [G9A C11U C16U G63A U65G C68G],4.96e-05 ± 1.6e-05 s⁻¹,7.82e-05 ± 1.8e-05 s⁻¹,3.97e-05 ± 1.5e-05 s⁻¹,
AUAAAAGCGCCAGAACUACAGAAAUGUAGUUGACGAGGAGGAGGUUUAUCGAAUUUUCGGCGGUUGCCUACAAA [A64U C70A],< 1e-05 s⁻¹,,,< 1e-05 s⁻¹
AUAAAAGCGCCAGAACUACAGAAAUGUAGUUGACGAGUAGGUGGUUUAUCGAAUUUUCGGCUGAUGCCUCCAAA [G38U A42U G62U],< 1e-05 s⁻¹,< 1e-05 s⁻¹,< 1e-05 s⁻¹,
AUAAAAGCGCCAGAACUACAGAAAUGUAGUUGAUGAGGACGAGGUUAAUCGAAUUUUCGGCGGAUGGCUCCAAA [C34U G40C U47A C67G],< 1e-05 s⁻¹,,,
AUAAAAGCGCCGGAACUACAGAAAUGUAGUUGACGAGGAGGUGGUUUAUCGAAUUUUCUGCGCAUGCCUCUAAA [A12G A42U G59U G63C C71U],< 1e-05 s⁻¹,< 1e-05 s⁻¹,,
AUAAAAUCGCCAGAACUACAGAAAUGUAGUUGACGAGGAGCAGGUUUAUCGGAUUUUCGGCGGAUGCCUCCAAA [G7U G41C A52G],< 1e-05 s⁻¹,< 1e-05 s⁻¹,< 1e-05 s⁻¹,< 1e-05 s⁻¹
AUAAAAGCGCGAGAACUACAGAAAUGUAGUUGACGAGGAGGAGGUUUAUCGAAUUUUCGGCGGAUGACUCGAAA [C11G C67A C71G],4.73e-05 ± 1.9e-05 s⁻¹,0.000132 ± 3.5e-05 s⁻¹,0.000135 ± 4.2e-05 s⁻¹,
AUAAAAGCGCCAGCACUACAGAAAUGUAGUUUACGAGGAGGAGGUUUAUCGCAUUUUCGGCGGAUGCCUCCAAA [A14C G32U A52C],< 1e-05 s⁻¹,< 1e-05 s⁻¹,< 1e-05 s⁻¹,
